Experimental data: patent publication US6899878 (GENETICS INSTITUTE, dated 2005)
Ends that are not written are not given here.

B1: IL-1 receptor p80 (type I) amino acids 477 to 527, wild-type bait from plasmid EG202-IL1R (477-527) (receptor, human, UniProt P14778 494-544, looked up)
chain: QDYEKMPESIKFIKQKHGAIRWSGDFTQGPQSAKTRFWKNVRYHMPVQRRS
modifications: also: fused to LexA (pEG202 bait), residues not given here
notes: range 477-527; positions may be shifted against the UniProt entry; also called WT; original bait; not shown: LexA, fusion partner of baits made in vector pEG202
B2: IL-1-R intracellular ligand protein encoded by clone 31w (interaction trap prey) (other, not shown: large carriers)
chain: KKGGKTEQDGYQKPTNKHFTQSPKKSVADLLGSFEGKRRLLLITAPKAENNMYVQQRDEYLESFCKMATRKISVITIFGPVNNSTMKIDHFQLDNEKPMRVVDDEDLVDQRLISELRKEYGMTYNDFFMVLTDVDLRVKQYYEVPITMKSVFDLIDTFQSRIKDMEKQKKEGIVCKEEVGGVLELFPINGSSVVEREDVPAHLVKDIRNYFQVSPEYFSMLLVGKDGNVKSWYPSPMWSMVIVYDLIDSMQLRRQEMAIQQSLGMRCQKMSMQAMVTIVTTKDTRMVTRMTTVIMRVITMDTLTEQKYVTLDSASFLCSC
notes: Prey fusion expressed from pJG4-5 in yeast; believed to be a partial clone of a longer protein
B3: IL-1 receptor p80 (477-527) mutant bait W514A (receptor, human, UniProt P14778 494-544, looked up)
chain: QDYEKMPESIKFIKQKHGAIRWSGDFTQGPQSAKTRFAKNVRYHMPVQRRS
modifications: also: fused to LexA (pEG202 bait), residues not given here
notes: range 477-527; not shown: LexA, fusion partner of baits made in vector pEG202
B4: IL-1 receptor p80 (477-527) mutant bait K515R (receptor)
chain: QDYEKMPESIKFIKQKHGAIRWSGDFTQGPQSAKTRFWRNVRYHMPVQRRS
modifications: also: fused to LexA (pEG202 bait), residues not given here
B5: IL-1 receptor p80 (477-527) mutant bait R518K (receptor, human, UniProt P14778 494-544, looked up)
chain: QDYEKMPESIKFIKQKHGAIRWSGDFTQGPQSAKTRFWKNVKYHMPVQRRS
modifications: also: fused to LexA (pEG202 bait), residues not given here
notes: as for B3
B6: IL-1 receptor p80 (477-527) mutant bait Y519S (receptor, human, UniProt P14778 494-544, looked up)
chain: QDYEKMPESIKFIKQKHGAIRWSGDFTQGPQSAKTRFWKNVRSHMPVQRRS
modifications: also: fused to LexA (pEG202 bait), residues not given here
notes: as for B3
B7: bicoid (unrelated bait) (other, UniProt P09081 2-160, looked up)
chain: AQPPPDQNFYHHPLPHTHTHPHPHSHPHPHSHPHPHHQHPQLQLPPQFRNPFDLLFDERTGAINYNYIRPYLPNQMPKPDVFPSEELPDSLVMRRPRRTRTTFTSSQIAELEQHFLQGRYLTAPRLADLSAKLALGTAQVKIWFKNRRRRHKIQSDQHK

Tests used:
[1] = target: T1, IL-1-R intracellular ligand protein encoded by clone 14w (interaction trap prey) (human, UniProt P17655 450-700); test: yeast interaction trap, LacZ blueness on plates
T1 construct: Prey fusion expressed from pJG4-5 in yeast
T1 sequence: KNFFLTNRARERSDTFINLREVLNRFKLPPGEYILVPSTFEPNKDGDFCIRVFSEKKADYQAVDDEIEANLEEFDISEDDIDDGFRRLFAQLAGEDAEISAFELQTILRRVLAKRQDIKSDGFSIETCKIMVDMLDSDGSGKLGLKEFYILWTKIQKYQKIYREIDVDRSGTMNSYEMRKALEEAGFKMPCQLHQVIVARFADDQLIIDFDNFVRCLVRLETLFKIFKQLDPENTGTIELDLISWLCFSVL
Procedure: (§1) Mutations that abolish IL-1R signaling ere introduced into the original bait plasmid, EG202-IL-1R (477–527) (with following amino acid substitutions: F513A, W514A, K515R, R518K, and Y519S) and the ability of the IL-1R intracellular ligands to interact with these mutant proteins was tested in the interaction trap. EGY48 carrying pSH18-34 (lexAop-LacZ) were cotransformed with two plasmids: one carrying 14w, 19w or 31w; the other with bait, EG202-IL1R (477–527), either wild-type or one of the mutants, transformants were then streaked onto CM ura⁻his⁻trp⁻ plates containing galactose/raffinose and β-gal. The strength of interaction (as indicated by the number of "+" signs) was judged by the blueness in the plates (indicator of LacZ expression).

[2] = target: T2, IL-1-R intracellular ligand protein encoded by clone 19w (interaction trap prey) (human, UniProt Q92626 1304-1479); test: yeast interaction trap, LacZ blueness on plates
T2 construct: Prey fusion expressed from pJG4-5 in yeast; believed to be a partial clone of a longer protein
T2 sequence: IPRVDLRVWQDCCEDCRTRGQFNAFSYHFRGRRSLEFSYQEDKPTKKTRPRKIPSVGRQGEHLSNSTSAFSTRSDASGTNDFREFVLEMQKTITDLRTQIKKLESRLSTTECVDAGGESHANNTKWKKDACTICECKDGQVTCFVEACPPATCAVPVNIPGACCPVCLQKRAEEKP
Procedure: as §1

bicoid (unrelated bait) = target: B7; test: yeast interaction trap, bait specificity test
Description: (§2) A WI38 cDNA library was transformed into the reporter strain (EGY48/pSH18-34) containing the bait plasmid EG202-IL1R (477–527). 1.3 million primary transformants were harvested and 7 million colonies were screened. 192 galactose-dependent colonies were isolated. Among these, 51 clones were bait specific (i.e., interacted specifically with the original bait, but not with an unrelated bait, bicoid). These clones were then subjected to DNA sequence analysis. Clones 19w was isolated 6, times, clone 31w twice and clone 14w once.

[3] = target: B1; test: yeast interaction trap, LacZ blueness on plates
Procedure: as §1

[4] = target: B4; test: yeast interaction trap, LacZ blueness on plates
Procedure: as §1

[5] = target: T1, IL-1-R intracellular ligand protein …; test: yeast interaction trap, bait specificity test
Description: as §2

[6] = target: T2, IL-1-R intracellular ligand protein …; test: yeast interaction trap, bait specificity test
Description: as §2

Binder	binding result [1]	binding result [2]	other results
B1	binds	binds	–
B2	–	–	binding result (bicoid (unrelated bait)): no binding; binding result [3]: binds; binding result [4]: binds
B3	binds	binds	–
B4	binds	binds	–
B5	binds	–	–
B6	binds	–	–
B7	–	–	binding result [5]: no binding; binding result [6]: no binding
